Test results reported in IntAct's records for PubMed 21223507.

B1: Eukaryotic translation initiation factor 2-alpha kinase 1 (Mus musculus), Q9Z2R9 (parent)
chain: MLGGSSVDGERDTDDDAAGAVAAPPAIDFPAEVSDPKYDESDVPAELQVLKEPLQQPTFPFLVANQLLLVSLLEHLSHVHEPNPLHSKQVFKLLCQTFIKMGLLSSFTCSDEFSSLRLHHNRAITHLMRSAKERVRQDPCQDNSYMQKIRSREIAFEAQTSRYLNEFEELAILGKGGYGRVYKVRNKLDGQHYAIKKILIKSATKTDCMKVLREVKVLAGLQHPNIVGYHTAWIEHVHVVQPQDRVPIQLPSLEVLSEQEGDRDQGGVKDNESSSSIVFAELTPEKEKPFGESEVKNENNNLVSYTANLVVRNSSESESSIELQEDGLTDLSVRPVVRHQLPLGHSSELEGNFTSTDESSEGNLNLLGQTEVRYHLMLHIQMQLCELSLWDWITERNKRSREYVDEAACPYVMASVATKIFQELVEGVFYIHNMGIVHRDLKPRNIFLHGPDQQVKIGDFGLACADIIQNADWTNRNGKGTRTHTSRVGTCLYASPEQLEGSQYDAKSDMYSLGVILLELFQPFGTEMERATVLTGVRTGRIPESLSKRCPVQAKYIQLLTGRNVSQRPSALQLLQSELFQTTGNVNLTLQMKIIEQEKEIEELKKQLSLLSQDRGLKR

Variants of: B1
Conditions: with if2a_mouse Eif2s1, Q6ZWX6
if2a_mouse Eif2s1, Q6ZWX6, sequence (Q6ZWX6 whole entry): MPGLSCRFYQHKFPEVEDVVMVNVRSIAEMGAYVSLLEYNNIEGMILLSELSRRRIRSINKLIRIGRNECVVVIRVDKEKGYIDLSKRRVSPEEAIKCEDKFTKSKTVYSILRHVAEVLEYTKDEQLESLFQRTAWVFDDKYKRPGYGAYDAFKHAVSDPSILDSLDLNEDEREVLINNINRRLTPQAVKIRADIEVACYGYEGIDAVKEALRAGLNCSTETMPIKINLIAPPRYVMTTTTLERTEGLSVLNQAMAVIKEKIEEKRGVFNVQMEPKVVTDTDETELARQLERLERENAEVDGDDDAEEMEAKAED

| Variant | effect of a mutation on the interaction |
| --- | --- |
| S502A | disrupting interaction |

Variants of: B1
Conditions: with if2a_mouse Eif2s1, Q6ZWX6
Remark: another data set of the same source

| Variant | effect of a mutation on the interaction |
| --- | --- |
| T490A | disrupting interaction |

Variants of: B1
Conditions: with if2a_mouse Eif2s1, Q6ZWX6
Remark: another data set of the same source

| Variant | effect of a mutation on the interaction |
| --- | --- |
| H120A | decreasing interaction |
| H119A | decreasing interaction |

Variants of: B1
Conditions: with if2a_mouse Eif2s1, Q6ZWX6
Remark: another data set of the same source

| Variant | effect of a mutation on the interaction |
| --- | --- |
| K196R | disrupting interaction |

Variants of: B1
Conditions: with if2a_mouse Eif2s1, Q6ZWX6
Remark: another data set of the same source

| Variant | effect of a mutation on the interaction |
| --- | --- |
| T485A | decreasing interaction |

Variants of: B1
Conditions: with if2a_mouse Eif2s1, Q6ZWX6
Remark: another data set of the same source

| Variant | effect of a mutation on the interaction |
| --- | --- |
| Y193F | decreasing interaction |
